Measurements reported in US11766479 (ZHEJIANG SHIMAI PHARMACEUTICAL, dated 2023).

B1: hexahistidine-tagged 3A10 Fab (Fab, V domains shown)
VH: EVQLVESGGGLVKPGGSLRLSCAASGFTFSNAWMSWVRQAPGKGLEWVSYISSSGSTIYYADSVKGRFTISRDNAKNSLYLQMNSLRAEDTAVYYCARLAGPYYFDYWGQGTLVTVSS
VL: QSVVTQPPSVSAAPGQKVTISCSGSSSNIGNNYVSWYQQLPGTAPKLLIYDNNKRPSGIPDRFSGSKSGTSATLGIDGLRTGDEAEYFCGVWDSSLRAELFAGGTKVTVL
notes: Human Fab from a phage library with a lambda light chain, made in E. coli HB2151; also called Fab 3A10; anti-ENPP3 Fab 3A10
B2: anti-ENPP3 3A10 mAb (antibody, human IgG1, lambda, V domains shown)
VH: B1 VH
VL: QSVVTQPPSVSAAPGQKVTISCSGSSSNIGNNYVSWYQQLPGTAPKLLIYDNNKRPSGIPDRFSGSKSGTSATLGIDGLRTGDEAEYFCGVWDSSLRAELFAGGTKVTVLS
notes: Intact human IgG1 with wild type Fc and a lambda light chain, expressed in 293FS cells; also called anti-ENPP3 monoclonal antibody

Legend:
[1] = target: T1, recombinant human ENPP3 (full-length extracellular domain) (human, UniProt O14638 31-875); test: ELISA, recombinant human ENPP3 coated at 200 ng per well, detection with HRP anti-FLAG
T1 construct: extracellular domain; Bought protein; also called Human ENPP3 (CD203c) protein
T1 sequence (looked up): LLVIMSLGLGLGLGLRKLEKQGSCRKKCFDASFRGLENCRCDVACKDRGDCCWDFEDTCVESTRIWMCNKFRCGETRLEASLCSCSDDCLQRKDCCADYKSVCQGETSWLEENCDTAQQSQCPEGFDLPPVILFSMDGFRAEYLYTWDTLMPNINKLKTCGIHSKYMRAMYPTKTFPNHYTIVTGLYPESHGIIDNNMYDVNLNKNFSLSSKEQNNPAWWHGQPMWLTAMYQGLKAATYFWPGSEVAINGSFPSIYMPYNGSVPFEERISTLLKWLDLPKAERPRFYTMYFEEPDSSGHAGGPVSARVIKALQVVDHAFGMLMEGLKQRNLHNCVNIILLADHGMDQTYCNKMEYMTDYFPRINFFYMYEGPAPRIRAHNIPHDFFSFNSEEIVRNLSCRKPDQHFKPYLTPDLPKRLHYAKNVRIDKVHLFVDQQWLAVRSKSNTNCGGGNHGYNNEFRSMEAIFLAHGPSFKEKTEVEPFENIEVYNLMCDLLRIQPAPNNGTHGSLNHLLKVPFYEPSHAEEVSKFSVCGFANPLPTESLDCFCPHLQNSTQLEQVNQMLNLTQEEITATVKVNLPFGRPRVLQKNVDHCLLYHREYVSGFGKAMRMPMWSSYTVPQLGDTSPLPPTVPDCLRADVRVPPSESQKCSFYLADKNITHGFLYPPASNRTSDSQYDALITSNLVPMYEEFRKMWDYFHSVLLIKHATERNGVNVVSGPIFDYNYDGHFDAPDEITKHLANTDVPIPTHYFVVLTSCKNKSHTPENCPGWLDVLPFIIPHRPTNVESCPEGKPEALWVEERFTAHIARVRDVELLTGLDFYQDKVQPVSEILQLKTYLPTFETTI
Procedure: The hexahistidine (HHHHHH, SEQ ID NO: 35)-tagged 3A10 Fab was expressed in *E. coli* strain HB2151 and purified from the soluble fraction of periplasm by using the Ni-NTA resin. Then ELISA was performed by using standard protocols to measure binding affinity to recombinant human ENPP3 (full-length extracellular domain). Briefly, the recombinant human ENPP3 (ACROBiosystems) was coated on Corning EIA/RIA high-binding 96-well plates (Corning Inc.) at 200 ng per well overnight at 4° C. and blocked with 3% nonfat milk in PBS (pH7.4). Five-fold serially diluted antibodies were added accordingly and then incubated at room temperature for 2 h. The plates were washed with PBS containing 0.05% TWEEN® 20. Bound antibodies were detected by HRP-conjugated anti-FLAG tag antibody (Sino Biological). The assay was developed at room temperature with TMB substrate (Solarbio) and OD value was measured at 450 nm with a microplate reader.

[2] = target: T1, recombinant human ENPP3 (full-length …); test: ELISA, recombinant human ENPP3 coated at 100 ng per well, detection with anti-human IgG Fc-peroxidase
Procedure: ELISA was performed according to standard protocols, to determine binding affinity of anti-ENPP3 3A10 mAb to recombinant human ENPP3 (AcroBiosystems). Briefly, recombinant human ENPP3 was coated on Corning EIA/RIA high-binding 96-well plates (Corning Inc.) at 100 ng per well overnight at 4° C. and blocked with 3% nonfat milk in PBS (pH7.4). Five-fold serially diluted antibodies were added and incubated at 37° C. for 1 h. The plates were washed with PBS containing 0.05% TWEEN® 20. Bound antibodies were detected by anti-human IgG (Fc-specific)-peroxidase antibody (Sigma). The assay was developed at room temperature with TMB substrate (Solarbio) and monitored at 450 nm with a microplate reader. The half-maximal binding ($EC50$) was calculated by fitting the data to the Langmuir adsorption isotherm.

Row | Binder | EC50 [1] | EC50 [2]
1 | B1 | 9.17 nM | –
2 | B2 | – | 0.107 nM
